Experiment: yeast display, Sf9 membrane polyspecificity reagent, FACS + sequencing; frameworks hold sequencing errors
In short: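 A synthetic nanobody library was expressed on Saccharomyces cerevisiae BJ5465 by galactose induction for 36–48 hours. The library was stained for 1 hour at 4 °C with 10% biotinylated, detergent-solubilized Sf9 membrane reagent and enriched with streptavidin microbeads before FACS. Low and high (top ~1%) gates were set on anti-HA fluorescence for expression and streptavidin fluorescence for reagent binding, and each polyreactivity label reflects the gate of origin.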

**Q.** For “QVQLVESGGGLVQAGGSLRLSCAASGFSVYPYAMGWYRQAPGKERELVAAISSSGGSTYYADSVKGRFTISRDNAKNTVYLQMNSLKPEDTAVYYCNKRPQQYRPGYDYWGQGTQVTVSS”, which “polyreactivity (PSR sort gate)” value is on record?
**A.** The value was “high polyreactivity”.

**Q.** Which “polyreactivity (PSR sort gate)” value does the source give for “QVQLVESGGGLVQAGGSLRLSCAASGFTCSTYAMGWYSQAPGKERELVAVISWNGGSTYYADSVKGRFTISRDNANNTVYLQMNSLKPEDTAVYYCDARGSFKQGYWGQGTQVTVSS” here?
**A.** The value was “high polyreactivity”.

**Q.** For “QVQLVESGGGLVQAGGSLRLSCAASGFTCTRYAMGWYRQAPGKERELVATITGGGRTNYADSVKGRFTISRDNAKNTVYLQMNSLKPEDTADYYCNAKYRVYWGSGKFDYWGQGSQVTVSS”, which “polyreactivity (PSR sort gate)” value is on record?
**A.** Its value is “high polyreactivity”.

**Q.** For “QVQLVESGGGLVQAGGSLRLSCAASGFTCTYYAMGWYRQAPGKERELVAAITRGGITNYADSVKGRFTISRDNAKNTVYLQMNSLKPEDTAVYYCAADYWNFNWRYKLYRPYDYWGQGTQVTVSS”, which “polyreactivity (PSR sort gate)” value is on record?
**A.** Its value is “high polyreactivity”.

**Q.** For “QVQLVESGGGLVQAGGSLRLSCAASGFTFAFNAMGWYRQAPGKERELVAAISGTVSRTRYADSVKGRFTISRDNAKNTVYLQMNSLKPEDTAVYYCAARGYYRYSYPYQPYRMDYWGQGTQVTVSS”, which “polyreactivity (PSR sort gate)” value is on record?
**A.** Its value is “high polyreactivity”.

**Q.** For “QVQLVESGGGLVQAGGSLRLSCAASGFTFAGNAMGWYRQAPGKERELVAGISRRGGNTYYADSVKGRFTISRDNAKNTVYLQMISLKPEDTAVYYCAARARRRYYYWGQGTQVTVSS”, which “polyreactivity (PSR sort gate)” value is on record?
**A.** The value was “high polyreactivity”.

**Q.** For “QVQLVESGGGLVQAGGSLRLSCAASGFTFAGYAMGWYRQAPGKERELVAAISYSGGRTYYADSVKGRFTISRDNEKNTVYLQMNSLKPEDTAVYYCNADPAYYRGYYRQGYDYWGQGTQVTVSS”, which “polyreactivity (PSR sort gate)” value is on record?
**A.** Its value is “high polyreactivity”.

**Q.** Which “polyreactivity (PSR sort gate)” value does the source give for “QVQLVESGGGLVQAGGSLRLSCAASGFTFAGYAMGWYRQAPGKERELVAGIRSSGARTYYADSVKGRFTISRDNAKNTVYLQMNSLKPEDTAVYYCAKTDGFYRGYGYWGQGTQVTVSS” here?
**A.** Its value is “low polyreactivity”.

**Q.** Which “polyreactivity (PSR sort gate)” value does the source give for “QVQLVESGGGLVQAGGSLRLSCAASGFTFAKNAMGWYRPAPGKERELVATISRSGGSTYYADSVKGRFTISRDNAKNTVYLQMNSLKPEDTAVYDCAADRSYGVLGNEGGYWGQGTQVTVSS” here?
**A.** The value was “high polyreactivity”.

**Q.** For “QVQLVESGGGLVQAGGSLRLSCAASGFTFAKYVMGWYRQAPGKERELVAAISFSGGSTYYADSVKGRFTISRDNAKNTVYLQMNSLKPEDTAVYYCAALSDSRWHRFGYWGQGTQVTVSS”, which “polyreactivity (PSR sort gate)” value is on record?
**A.** Its value is “high polyreactivity”.

**Q.** Which “polyreactivity (PSR sort gate)” value does the source give for “QVQLVESGGGLVQAGGSLRLSCAASGFTFAMNAMGWYRQAPGKERELVAAITFSGGSTYADSVKGRFTISRDNAKNTVYLQMNSLKPEDTAVYYCNAGGDGVATGYDYWGQGTQVTVSS” here?
**A.** Its value is “low polyreactivity”.

**Q.** With “QVQLVESGGGLVQAGGSLRLSCAASGFTFANPMGWYRQAPGKERELVAAISSGGGSTYYADSVKGRFTISRDNAKNTVYLQMNSLKPEDTAVYYCAAGYGTLDWWEDYWGQGTQVTVSS” as the sequence, how does the “polyreactivity (PSR sort gate)” value read?
**A.** The value was “high polyreactivity”.

**Q.** For “QVQLVESGGGLVQAGGSLRLSCAASGFTFANYVMGWSRQAPGKERELVAAITTPGGSTSYADSVKGRFTISRDNAKNTVYLQMNSLKPEDTAVYYCNKTTYYPSDYDYWGQGTQETVSS”, which “polyreactivity (PSR sort gate)” value is on record?
**A.** The value was “low polyreactivity”.

**Q.** For “QVQLVESGGGLVQAGGSLRLSCAASGFTFARYAMGWYIQAPGKERELVASISGSGESTYYADSVKGRFTISRDNAKNTVYLQMNSLKPEDTAVYYCAAEGSFLFFSWYWPEYDYWGQGTQVTVSS”, which “polyreactivity (PSR sort gate)” value is on record?
**A.** Its value is “high polyreactivity”.

**Q.** For “QVQLVESGGGLVQAGGSLRLSCAASGFTFARYAMGWYRQAPGKERELVAAISWTGARTYYADSVKGRFTISRDNAKNTVYLQMNSLKPEDTAVYYCNAVSGSSNFDYWGQGTQVTVSS”, which “polyreactivity (PSR sort gate)” value is on record?
**A.** The value was “high polyreactivity”.

**Q.** For “QVQLVESGGGLVQAGGSLRLSCAASGFTFARYTRVWSRQAPGKERELVAAISKRGTSTYYADSVKGRFTISRDNAQNTVYLQMNSLKAEDTAVYYCAATPGTGYGDYDYWGQGTQVTVSS”, which “polyreactivity (PSR sort gate)” value is on record?
**A.** The value was “high polyreactivity”.

**Q.** With “QVQLVESGGGLVQAGGSLRLSCAASGFTFARYVMGWSRQAPGKERELVAGITYRVGSTYYADSVKGRFSISRDNAKNTVYLQMNSLKPEDTAVYYCAAYLSTGYYYWGQGTQVTVSS” as the sequence, how does the “polyreactivity (PSR sort gate)” value read?
**A.** The value was “high polyreactivity”.

**Q.** For “QVQLVESGGGLVQAGGSLRLSCAASGFTFASNAMGWYRQAPWKERELDAGISRTGTTTYYADSVKGRFTISRDNAKNTVYLQMNSLKPEDTAVYYCAASKQAVKYRSQRYYYWGQGTQVTVSS”, which “polyreactivity (PSR sort gate)” value is on record?
**A.** The value was “high polyreactivity”.

**Q.** For “QVQLVESGGGLVQAGGSLRLSCAASGFTFASYAMGCYIQPPGKEMELVAAITWSGGSTYYADSVKGRFTISRDNAKNTVYLQMNSLKPEDTAVYYCNALVIARNIEMDYWGQGTQVTVSS”, which “polyreactivity (PSR sort gate)” value is on record?
**A.** The value was “high polyreactivity”.

**Q.** For “QVQLVESGGGLVQAGGSLRLSCAASGFTFASYAMGWYRQAPGKERELVAAITRRGGSTNYADSVKGRFTISRDNAKNTVFLQMNSLKPEDTAVYYCNALHGVWYPAYDYWGQGTQVTVSS”, which “polyreactivity (PSR sort gate)” value is on record?
**A.** Its value is “low polyreactivity”.

**Q.** For “QVQLVESGGGLVQAGGSLRLSCAASGFTFAVYAMGWYRQAPGKERELVAAISRSGTRTYYADSVKGRFTISRDNAKNTVFLQMNSLKPEDTAVYYCAADKYRHGYDYWGQGTQVTVSS”, which “polyreactivity (PSR sort gate)” value is on record?
**A.** The value was “low polyreactivity”.

**Q.** With “QVQLVESGGGLVQAGGSLRLSCAASGFTFAWYAMGWYRQAPGKERELVAAISWSGGRTYYADSVKGRFTISRDNAKNTVYLQMNSLKPEDTAVYYCAALFLYGYVREYDYWGQGTQVTVSS” as the sequence, how does the “polyreactivity (PSR sort gate)” value read?
**A.** The value was “high polyreactivity”.

**Q.** For “QVQLVESGGGLVQAGGSLRLSCAASGFTFAYIAMGWYRQAPGKERELVAAITVSGGRTYYADTVKGRFTISRDNAKNTVYLQMYSLKPEDTAVYYCAATVRVRTNSWMDYWGQGTQVTVSS”, which “polyreactivity (PSR sort gate)” value is on record?
**A.** The value was “low polyreactivity”.

**Q.** Which “polyreactivity (PSR sort gate)” value does the source give for “QVQLVESGGGLVQAGGSLRLSCAASGFTFAYYAMGWYRPAPGKERELVAAISSGGSTDYADSVKGRFTISRDNAKNTVYLQMNSLKPEDTAVYYCNAVVVRLWYDYDYWGQGTQVTVSS” here?
**A.** Its value is “low polyreactivity”.

**Q.** With “QVQLVESGGGLVQAGGSLRLSCAASGFTFAYYAMGWYRQAPGKERELVAAISSGGGTYYADSVKGRFTISRDNAKNTVYLQMNSLKPEDTAVYYCNAANGRYIGSRYVVYTGFYYWGQGTQVTVSS” as the sequence, how does the “polyreactivity (PSR sort gate)” value read?
**A.** The value was “high polyreactivity”.

**Q.** For “QVQLVESGGGLVQAGGSLRLSCAASGFTFAYYAMGWYRQAPGKERELVATITSGGRTYYADSVKGRFTISSDNAKNTVYLQMNSLKPEDTAVYYCAATGRSGVLSSYYYWGQGTQVTVSS”, which “polyreactivity (PSR sort gate)” value is on record?
**A.** Its value is “high polyreactivity”.

**Q.** With “QVQLVESGGGLVQAGGSLRLSCAASGFTFAYYAMGWYRQAPRKESELVAGISWRGGRTYYADSVKGRFTISRDNAKNTVYLQMNSLKPEDTAVYYCAKQPGNFGRFDYWGQGTQVTVSS” as the sequence, how does the “polyreactivity (PSR sort gate)” value read?
**A.** The value was “high polyreactivity”.

**Q.** With “QVQLVESGGGLVQAGGSLRLSCAASGFTFDDNAMGWYRQAPGKERELVATISYSDGNTYYADSVKGRFTISRDNAKNTVYLQMNSLIPEDTAVYYCAADDWAVYYIGLDYDYWGQGTQVTVSS” as the sequence, how does the “polyreactivity (PSR sort gate)” value read?
**A.** Its value is “low polyreactivity”.

**Q.** For “QVQLVESGGGLVQAGGSLRLSCAASGFTFDDNAMGWYRQAPGKERELVATISYSDGNTYYADSVKGRFTISRDNAKNTVYLQMNSLKPEDTAVYYCAADEWAVYYIGLDYDYWGQGTQVTVSS”, which “polyreactivity (PSR sort gate)” value is on record?
**A.** Its value is “low polyreactivity”.

**Q.** Which “polyreactivity (PSR sort gate)” value does the source give for “QVQLVESGGGLVQAGGSLRLSCAASGFTFDENAMGWYRQAPGINYSGASTYYADSVKGRFTISRDNAKNTVYLQMNSLKADDTAVYYCAAEVVAQMNYWGQGTQVTVSS” here?
**A.** Its value is “low polyreactivity”.

**Q.** With “QVQLVESGGGLVQAGGSLRLSCAASGFTFDENAMGWYRQAPGINYSGASTYYADSVMGRFTFSRDNAKNTVYLQMNSLKPEDTAVYYCAAEVVAQMNYWGQGTQVTVSS” as the sequence, how does the “polyreactivity (PSR sort gate)” value read?
**A.** Its value is “low polyreactivity”.

**Q.** With “QVQLVESGGGLVQAGGSLRLSCAASGFTFDFYAMGWYRQAPGKERELVAAISKNDGTTYYADSVKGRFTISRDNAKNTVYLQMNSLKPEDTAVYYCAAESGYAVYTYVSSGDYWGQGTQVTVSS” as the sequence, how does the “polyreactivity (PSR sort gate)” value read?
**A.** Its value is “low polyreactivity”.

Reference: the nanobody polyreactivity screen of Harvey et al. (2022)
